The target of assay [1] is HA70 of BoNT/A (full-length, residues M1–N626) (Clostridium botulinum strain 62A (BoNT/A1-producing)). Briefly: AUC.
In assay [2] the target is HA complex (HA70–HA17–HA33), recombinant, reconstituted in vitro (Clostridium botulinum strain 62A (BoNT/A1-producing)) (UniProt Q45871). Briefly: […], pH 7.6 with 100 mM NaCl; […].
Assay [3] deals with mini-HA complex (HA70^D3–HA17–HA33) (Clostridium botulinum strain 62A (BoNT/A1-producing)) (UniProt Q45871). Briefly: […], pH 7.6 with 100 mM NaCl; […].
Assay [4] addresses HA33 (full-length, residues M1–P293), expressed alone (Clostridium botulinum strain 62A (BoNT/A1-producing)) (UniProt P0DPR0). Briefly: AUC.

“HA70 of BoNT/A (full-length, residues M1–N626) (natural protein)” displayed a stoichiometry N (HA70 chains in the oligomer) in assay [1] of 3.
Regarding “HA complex (HA70–HA17–HA33), recombinant, reconstituted in vitro (from UniProt Q45871 1-293)”, the equilibrium dissociation constant (Kd) in assay [2] is 10.9 µM.
As for “mini-HA complex (HA70^D3–HA17–HA33) (from UniProt Q45871 1-293)”, in assay [3], the dissociation constant (Kd) came out at 23.1 µM.
Regarding “HA33 (full-length, residues M1–P293), expressed alone (from UniProt P0DPR0 1-286) (natural protein)”, the stoichiometry N in assay [4] is 2.
